The target in one assay is T1, human FcRn (human, UniProt P55899 24-290; P61769 21-119).
T1 construct: Prepared by the method of WO 2010/107110; also called hFcRn
The assay is described as follows: KD of 04H1637-G1m/04L1610-lam1 divided by KD of this antibody; SPR pH 6.0. As to the method: The interaction between the generated antibodies and human FcRn was analyzed by the following method using Biacore T200. 50 mM Na-Phosphate, 150 mM NaCl, 0.05% Tween20 (pH 6.0) was used as the running buffer, and the assay was performed at 25° C. For the sensor chip, Series S SA (GE Healthcare) chips onto which CaptureSelect Human Fab-lambda Kinetics Biotin Conjugate (Thermo Fisher Scientific) was immobilized were used. The antibodies of interest were captured onto these chips and FcRn diluted in the running buffer was allowed to interact with them. Chips were regenerated with 10 mM Glycine-HCl (pH 1.5) and 25 mM NaOH, and assay was performed by repeatedly capturing antibodies. The dissociation constant for FcRn of each antibody was calculated using the steady state model, using Biacore T200 Evaluation Software 2.0.
“Relative value to KD between G1m and hFcRn” and “Relative value to KD between G1m and hFcγRs” are values obtained by dividing the KD value of 04H1637-G1m/04L1610-lam1 for hFcRn and for each FcγR by the KD value of each variant, respectively. “Relative binding amount” indicates the value obtained by dividing the binding amount of each variant to FcγRIIb by the binding amount of 04H1637-G1m/04L1610-lam1. […] It was shown that all of the generated heterodimerized antibodies had enhanced binding to FcγRIIa and FcγRIIIa as compared with 04H1637-G1m/04L1610-lam1 which has the constant region of native human IgG1. Furthermore, 04H1637-Kn462/04L1610-lam1//04H1637-H1441/04L1610-lam1, 04H1637-Kn462/04L1610-lam1//04H1637-H1445/04L1610-lam1, and 04H1637-Kn461/04L1610-lam1//04H1637-H1443/04L1610-lam1 were all shown to have enhanced binding to FcγRIIa compared to 04H1637-Kn125/04L1610-lam1//04H1637-H1076/04L1610-lam 1 which has the Fc region variant reported in WO 2013/002362.

For assay [1], the target named is T2, human FcγRIIb extracellular domain, His-tagged (human, UniProt P31994 43-217).
T2 construct: extracellular domain; also called hFcγR IIb
T2 sequence (looked up): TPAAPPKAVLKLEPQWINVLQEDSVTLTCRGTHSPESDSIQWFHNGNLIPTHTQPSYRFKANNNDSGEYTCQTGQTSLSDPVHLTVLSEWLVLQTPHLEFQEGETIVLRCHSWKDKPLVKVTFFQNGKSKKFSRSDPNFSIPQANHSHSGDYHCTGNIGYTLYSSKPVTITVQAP
The assay is described as follows: binding amount of this antibody divided by that of 04H1637-G1m/04L1610-lam1; SPR pH 7.4.

The target of assay [2] is T2, human FcγRIIb extracellular domain, …. The assay is described as follows: SPR Biacore T200, 25C, pH 7.4; FcγRIIb at 1000 nM, corrected by captured antibody. Put shortly:
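Antibodies captured via anti-Fab-lambda on SA chip; FcγRs flowed in 50 mM Na-phosphate, 150 mM NaCl, 0.05% Tween20, pH 7.4, 25° C. KD by 1:1 Langmuir (FcγRIa, FcγRIIIa) or steady-state model (FcγRIIa); FcγRIIb binding normalised to captured antibody amount.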
(In SPR one partner is held on a chip, and binding of the other changes the refractive index at the surface.)

Assay [3] has as its target T3, human FcγRIa extracellular domain, His-tagged (human, UniProt P12314 16-292).
T3 construct: also called hFcγR Ia
The assay is described as follows: KD of 04H1637-G1m/04L1610-lam1 divided by KD of this antibody; SPR pH 7.4.

Assay [4] addresses T4, human FcγRIIIa, allotype F158, extracellular domain, His-tagged (human, UniProt P08637 17-208).
T4 construct: extracellular domain; also called hFcγR IIIa F
The description is as above.

Assay [5] deals with T5, human FcγRIIa, type H, extracellular domain, His-tagged (human, UniProt P12318 34-217).
T5 construct: extracellular domain; also called hFcγR IIa H
T5 sequence (looked up): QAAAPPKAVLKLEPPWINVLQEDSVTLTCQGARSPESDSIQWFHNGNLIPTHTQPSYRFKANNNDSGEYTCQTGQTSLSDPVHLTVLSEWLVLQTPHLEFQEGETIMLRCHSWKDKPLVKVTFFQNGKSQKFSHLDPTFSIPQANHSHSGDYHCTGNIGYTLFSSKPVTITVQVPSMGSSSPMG
The assay is described as above.

The target in assay [6] is T6, human FcγRIIIa, allotype V158, extracellular domain, His-tagged (human, UniProt P08637 17-208).
T6 construct: extracellular domain; also called hFcγR IIIa V
T6 sequence (P08637 17-208 F176V): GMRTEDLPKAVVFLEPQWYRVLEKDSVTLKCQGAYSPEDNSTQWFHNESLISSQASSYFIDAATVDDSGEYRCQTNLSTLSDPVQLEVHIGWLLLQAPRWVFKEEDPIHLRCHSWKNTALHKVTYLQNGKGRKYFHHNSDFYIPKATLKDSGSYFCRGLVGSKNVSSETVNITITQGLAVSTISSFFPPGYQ
The description is as above.

Assay [7] has as its target T7, human FcγRIIa, type R, extracellular domain, His-tagged (human, UniProt P12318 34-217).
T7 construct: extracellular domain; also called hFcγR IIa R
T7 sequence (looked up): T5 sequence (looked up) with H134R
Described as above.

Residue numbers refer to the chain shown, from its start. Names may count otherwise.

T3 sequence (P12314 16-292): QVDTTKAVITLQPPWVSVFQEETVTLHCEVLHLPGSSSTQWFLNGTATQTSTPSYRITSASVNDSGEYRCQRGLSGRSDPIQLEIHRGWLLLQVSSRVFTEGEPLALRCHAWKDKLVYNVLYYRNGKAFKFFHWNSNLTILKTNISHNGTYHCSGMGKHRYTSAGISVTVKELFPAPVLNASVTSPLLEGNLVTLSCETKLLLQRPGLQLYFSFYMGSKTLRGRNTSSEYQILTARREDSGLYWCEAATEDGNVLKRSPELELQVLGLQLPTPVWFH
T1 sequence (P55899 24-290 limits assumed, chain 1 of 2): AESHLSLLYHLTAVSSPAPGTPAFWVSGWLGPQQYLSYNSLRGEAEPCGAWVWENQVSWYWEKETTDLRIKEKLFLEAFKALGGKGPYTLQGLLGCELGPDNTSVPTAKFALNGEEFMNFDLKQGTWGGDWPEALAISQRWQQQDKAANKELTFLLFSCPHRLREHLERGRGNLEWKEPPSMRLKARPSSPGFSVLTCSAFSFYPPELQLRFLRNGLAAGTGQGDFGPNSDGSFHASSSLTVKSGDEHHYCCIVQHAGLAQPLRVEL
T1 sequence (P61769 21-119 limits assumed, chain 2 of 2): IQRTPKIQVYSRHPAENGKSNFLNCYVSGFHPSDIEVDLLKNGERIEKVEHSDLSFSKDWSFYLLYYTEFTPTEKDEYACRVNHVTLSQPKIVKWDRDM
T4 sequence (P08637 17-208): as the sequence (P08637 17-208 F176V) above, with V160F counted along it

B1: 04H1654-KT473/04L1610-lam1//04H1656-HT482/04L1610-lam1 (antibody, IgG1)
heavy 1: QVQLVESGGGVVQPGGSLRLSCAASGFTFSSKTMNWVRQAPGKGLEWVSSISTQSHYIYYARSVRGRFTISRDNAKNSLYLQMNSLRAEDTAVYYCARYGKREDMLWVFDYWGQGTLVTVSSASTKGPSVFPLAPSSKSTSGGTAALGCLVKDYFPEPVTVSWNSGALTSGVHTFPAVLQSSGLYSLSSVVTVPSSSLGTQTYICNVNHKPSNTKVDKRVEPKSCDKTHTCPPCPAPEFQWGPMVFLFPPKPKDVLMISRTPEVTCVVVDVSDEEPEVKFNWYVDGVEVHNAKTKPREEQYNATYRVVSVLPVLHQDWLNGKEYKCKVSNDALPAPIEKTISKAKGQPREPQVYTLPPSRKEMTKNQVSLTCLVKGFYPSDIAVEWESNGQPENNYKTTPPVLDSDGSFFLYSKLTVDKSRWQQGNVFSCSVMHEALHAHTTRKELSLSP
heavy 2: QVQLVESGGGVVQPGGSLRLSCAASGFTFSSKTMNWVRQAPGKGLEWVSSISTQSHYIYYAESVRGRFTISRDNAKNSLYLQMNSLRAEDTAVYYCARYGAREDMLWVFDYWGQGTLVTVSSASTKGPSVFPLAPSSKSTSGGTAALGCLVKDYFPEPVTVSWNSGALTSGVHTFPAVLQSSGLYSLSSVVTVPSSSLGTQTYICNVNHKPSNTKVDKRVEPKSCDKTHTCPPCPAPELLAGPSVFLFPPKPKDVLMISRTPEVTCVVVDVSHEEPEVKFNWYVDGVEVHNAKTKPREEQYNATYRVVSVLPVLHQDWLNGKEYKCKVSNDALPKPDEETISKAKGQPREPQVYTLPPSREEMTKNQVSLTCLVKGFYPSDIAVEWESNGQPENNYKTTPPVLDSDGSFFLYSKLTVDKSRWQQGNVFSCSVMHEALHAHTTREELSLSP
light: QSALTQPPSASGSPGQSVTISCEGPSTGVGDYNWVHWYQQHPGKAPKLMIYFTSKKPSGVPDRFSGSKSGNTASLTVSGLQAEDEADYYCQTYAAPLGPMFGGGTKLTVLGQPKAAPSVTLFPPSSEELQANKATLVCLISDFYPGAVTVAWKADSSPVKAGVETTTPSKQSNNKYAASSYLSLTPEQWKSHRSYSCQVTHEGSTVEKTVAPTECS
notes: Heterodimerized IgG1 Fc variant with N434A/Y436T/Q438R/S440E; also called SW1610-ART6+ACT1
Consider B1, for which the “Relative value to KD between G1m and hFcRn” value with human FcRn was determined as 2.3 ratio. This molecule also showed a Relative binding amount in assay [1] of 3.2 ratio. The Binding amount in assay [2] is 0.026 RU per RU of captured antibody. In addition, the “Relative value to KD between G1m and hFcγRs” value in assay [3] came out at 1.1 ratio; in assay [4] it was 363 ratio; in assay [5], 18 ratio; in assay [6], 115 ratio; in assay [7], 13.9 ratio.

B2: 04H1654-KT481/04L1612-lam1//04H1656-HT498/04L1612-lam1 (antibody, IgG1)
heavy 1: B1 heavy 1 with I337E
heavy 2: B1 heavy 2 with K335A, D337E
light: B1 light with N33T, W34Y
notes: Heterodimerized IgG1 Fc variant with N434A/Y436T/Q438R/S440E
In the case of B2, the “Relative value to KD between G1m and hFcRn” value with human FcRn was determined as 2.2 ratio. For the same molecule, the Relative binding amount in assay [1] is 2.8 ratio. The Binding amount in assay [2] is 0.022 RU per RU of captured antibody. In addition, the “Relative value to KD between G1m and hFcγRs” value was found to be 1.1 ratio in assay [3]; 479 ratio in assay [4]; 6.4 ratio in assay [5]; 145 ratio in assay [6]; 7.6 ratio in assay [7].

B3: 04H1654-KT481/04L1610-lam1//04H1656-HT498/04L1610-lam1 (antibody, IgG1)
heavy 1: B1 heavy 1 with I337E
heavy 2: B1 heavy 2 with K335A, D337E
light: B1 light
notes: as for B2
On to B3, for which the “Relative value to KD between G1m and hFcRn” value with human FcRn came to 2.3 ratio. Moreover, the Relative binding amount in assay [1] was found to be 2.7 ratio. Moreover, in assay [2], the Binding amount was 0.022 RU per RU of captured antibody. Moreover, the “Relative value to KD between G1m and hFcγRs” value came to 1.5 ratio in assay [3]; 495 ratio in assay [4]; 6.5 ratio in assay [5]; 152 ratio in assay [6]; 7.7 ratio in assay [7].

B4: 04H1654-KT473/04L1612-lam1//04H1656-HT482/04L1612-lam1 (antibody, IgG1)
heavy 1: B1 heavy 1
heavy 2: B1 heavy 2
light: B1 light with N33T, W34Y
notes: as for B2
Consider B4, for which the “Relative value to KD between G1m and hFcRn” value with human FcRn was 2.1 ratio. This molecule displayed a Relative binding amount in assay [1] of 3.2 ratio. In assay [2], the Binding amount was 0.026 RU per RU of captured antibody. In addition, the “Relative value to KD between G1m and hFcγRs” value in assay [3] worked out at 1 ratio; in assay [4], 355 ratio; in assay [5] it was 16.2 ratio; in assay [6], 110 ratio; in assay [7] it was 13.8 ratio.
